Experimental data from the supplement of paper PMC9170038.

System: K4 kissing-loop RNA reporter
Experiment: apparent KD of K4 kissing-loop reporter; higher = weaker reporter binding
Conditions: Eterna round: R107
Protocol: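 RNA-MaP round R107: designed RNA switches with theophylline, tryptophan, arginine or FMN aptamers are transcribed on-chip within common flanks. They are titrated with a labelled K4 kissing-loop RNA reporter in RNA-MaP buffer (100 mM Tris pH 7.5, 80 mM KCl, 4 mM MgCl2), without ligand or with the indicated ligand. Median apparent KD per design.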

[1] = input ligand: theophylline 20 uM
[2] = input ligand: tryptophan 2.4 mM
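Also: bound reporter read as fluorescence of individual clusters on recovered sequencing chips by microscopy, with normalized cluster intensities fitted with a binding model.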

Row | Sequence | apparent KD of K4 kissing-loop reporter (input ligand: FMN 200 uM) | apparent KD of K4 kissing-loop reporter (input ligand: arginine 13.2 mM) | apparent KD of K4 kissing-loop reporter (input ligand: none) | apparent KD of K4 kissing-loop reporter [1] | apparent KD of K4 kissing-loop reporter [2]
1 | CCGUAGAACGGAAGGAGCGCCAUAGAUAAGAAUUCCGUAAGUGAGUGAUGUUCACACAAAUGGCAGGUAGGUCGCCGUUAUUUAG [Arg B Ex t5] | 178 nM | 194 nM | 220 nM | 202 nM | 201 nM
2 | CCUAUCUCAUACGAUACCAGUCAAUGAUCUUUGAUCAAUGCCAUCACCGAGUGAUGUUCGGACCCUUGGCAGCGUAUGGGAUAGG [whbob_Ex_Theo_B_sa102] | 267 nM | 212 nM | 269 nM | 364 nM | 251 nM
3 | CCUCUCCUUGAUAGUGAUGUUAUCAAGGACAAGGAUAUCAUCUCAAUGAGAAGGUGUCCUUGAUAACAUGGAGGUCUGAAACAGA [Omei KL FMN A Exc C v1] | 138 nM | 126 nM | 136 nM | 125 nM | 122 nM
4 | CCUGCUACGUAAGGAUAUGGAAAUGAGUGAUGUUUAGAGAUAUGGUCCAGGUUUAGUCAUCAUAGACCAGAAGGUACAUCGGGCG [theeternabot_exclusion_KL_FMN_B_8] | 825 nM | 321 nM | 588 nM | 364 nM | 400 nM
5 | CCUUCUCUUGAUAGUGAUGUUAUCAAGGGCAAGGAUAUCAUCUCAAUGAGAAGGUGUCCUUGAUAACAUGGAGGUCUGAAACAGA [Omei KL FMN A Exc C v4] | 157 nM | 165 nM | 209 nM | 159 nM | 206 nM
6 | CGAACCUCCAAAGGAUAUCUCGUUUAGUGAUGUUUUGCGUAGUAUCAGGAUAGAAUAUUGAUUCAGAGAGAAGGUUGACGUUGGU [theeternabot_exclusion_KL_FMN_B_14] | 733 nM | 428 nM | 684 nM | 511 nM | 537 nM
7 | CGAAGACUUAUGGAUACCAGCCUAGCAUCAGGUGGUUCAGAGGCAUGCAGUGAUGUUGCAGGCCCUUGGCAGCCAUGGUACUAGA [Xelebi] | 76 nM | 71.3 nM | 70 nM | 79.8 nM | 79.7 nM
8 | CGACGGAGUGAUGUUUCGUGGUAUGCUGAUACCAGAUGAAACAGCGUCCCUUGGCAGCAGCAUACGCCAAGGAUAAUAUCCUAGU [Theo B SS t6] | 1200 nM | 611 nM | 1770 nM | 531 nM | 604 nM
9 | CGCAAGCAGCCAGUGAUGUUGGCCGCCUUGCGAGGACCGGUACGGCCGCCACUCGAAGGCGGCUACUGAUAAUCCGUCUAACGGA [KL-XTryp-A15] | 107 nM | 85.4 nM | 102 nM | 92.4 nM | 111 nM
10 | CGCAGUGAUGUUGCGAGUAGAUACAGGGAAGGAGCGCGGUAGUACGCAGGUAGGUCGCCCACGCAGUGAUGUUGCGUCAUAGGGU [Exclusion Arginine A GF6] | 103 nM | 93.1 nM | 91 nM | 98.6 nM | 95.7 nM
11 | CGCCGAAAGGCGAGCGCUCCCACUCCGGAAGGAGCGCCCGAAAGGGCAGGUAGGUCGCCGGAGUGAUGUUCCGGUGGAGGGCUCG [#2 Exclusion - Arginine A Attempt #30 (Inspired by Omei)] | 177 nM | 167 nM | 817 nM | 212 nM | 296 nM
12 | CGCGCCCGGCCGGAUACCAGUGACCCGCUGGGAACCGCGGGCCCAGAGUGAUGUUCGGGACACCCUUGGCAGCCGCCUGGGCGUG [#2 Same State - Theophylline B Attempt #5 (HarryS)] | 1110 nM | 364 nM | 841 nM | 738 nM | 550 nM
13 | CGCUGGAGUGAUGUUCCAGCUUCUACGGAUACCAGCCACGCCAGCGGCCCUUGGCAGCCGCAAAUUGCAGUGAUGUUGUGAUGCC [Same State Theophylline A GF 4] | 314 nM | 278 nM | 312 nM | 312 nM | 283 nM
14 | CGCUUUGCGUCCGGUAGUGAUGUUACCAAGCGAGGACCGGUACGGCCGCCACUCGAGUGACAGACGUACUGGUAUCACCCGCUUU | 223 nM | 229 nM | 248 nM | 235 nM | 208 nM
15 | CGGAUGUAGUGAUGUUAUAUUAGAUGUAGACGAGGACCGGUACGGCCGCCACUCGUGACGGCUGCUAGCGCGUUGCGAGGUGUGC [ExTryptoA.Cm] | 729 nM | 575 nM | 657 nM | 690 nM | 603 nM
16 | CGGGAAUUAGGUAUCGUCGAAAGCAAGAACCGAGGACCGGUACGGCCGCCACUCGCACCAGUGAUGUUGGUACAUUUGGUAUCCG [theeternabot_sameState_KL_Trp_A_31] | 115 nM | 112 nM | 134 nM | 103 nM | 132 nM
